Laboratory results from patent publication US9631180B2, “Recombinant manganese oxidase” (OREGON HEALTH & SCIENCE UNIVERSITY, priority 2013, dated 2017).

Legend:
[1] = literature values for Fet3p ferroxidases, cited from earlier work; for Km: read-out: Fe(II) KM
[2] = substrate: CCn1c(=NN=c2sc3cc(S(=O)(=O)O)ccc3n2CC)sc2cc(S(=O)(=O)O)ccc21; experiment: purified protein, by the assay type; type: biochemical, Bacillus sp. PL-12; conditions: other: ABTS, 22° C., 420 nm
Method: (§1) FIG. 8B is a plot showing the initial oxidation velocity of DMP plotted against initial substrate concentration in a reaction catalyzed by the recombinant Mn oxidase complex. […]
(§2) All plots in FIGS. 8A, 8B, and 8C were fitted with either Michaelis-Menten or allosteric sigmoidal functions as appropriate.
(§3) Kinetic experiments were performed on the Molecular Devices SpectraMax® M2 microplate reader spectrophotometer at 22° C. with purified protein. […] Reactions were carried out with 10 μg Mnx (final 240 nM) 100 mM in phosphate-citrate buffer pH 3-8 and 20 mM CHES, HEPES, and MES at pH 7-10. […] These assays were performed in at least two independent trials in triplicate. Fe(II) (ferrous ammonium sulfate) oxidation was measured by quenching 200 μl reactions with 50 μl of the Fe(II) chelating colorimetric assay FerroZine® (15 mM) and a ferrous ammonium sulfate standard curve, noting the absorbance at 570 nm. Fe(II) oxidation reactions were performed with 10 μg recombinant Mn oxidase complex in 100 mM Na acetate-acetic acid buffer (pH 4-5.5). Mn(II) (MnCl2) oxidation in 20 mM HEPES (pH 7-8.5) was measured by quenching 5 μl of 200 μl reactions with 195 μl leucoberbelin blue (LBB) colorimetric reagent and reading the absorbance at 618 nm. Working LBB reagent was prepared by diluting concentrated stock (100 mg LBB in 25 ml 0.4% NaOH) 1:10 into 1% acetic acid. A KMnO4 standard curve was used to determine MnO2 oxide equivalent concentration. The metal substrate assays were performed in five independent trials then the high and low values were discarded from each concentration. The linear part of each curve was fit plotted and fit with a linear regression in GraphPad Prism®. These slopes were converted to the appropriate kinetic units, plotted, and fit with nonlinear regressions determined by comparing best fit values in the same software. KM and Vmax were determined and reported as KM and kcat=Vmax/[enzyme].

[3] = substrate: COc1cccc(OC)c1O; experiment: purified protein, by the assay type; type: biochemical, Bacillus sp. PL-12; conditions: other: 2,6-DMP, pH 8, HEPES, 22° C., 468 nm, Michaelis-Menten, pH 8.0
Method: as §1, §2, §3

[4] = pH 4.5, phosphate-citrate buffer, Michaelis-Menten, pH 4.5
[5] = pH 8, HEPES, allosteric sigmoidal function, pH 8.0

Molecule | Fe(II) kcat [1] | Km [1] | Km [2, 4] | kcat [2, 4] | Km [2, 5] | kcat [2, 5] | Km [3]
Fet3p C. albicans: ferroxidase Fet3p from Candida albicans, described in Ziegler et al 2011 (protein, UniProt P78591 21-624, looked up) Iron transport multicopper …: AETHTWYFKTGWVDANPDGVYPRKMIGFNDSWPLPTLRVKKGDRVQLYLINGFDNLNTTLHFHGLFVRGANQMDGPEMVTQCPIPPGETYLYNFTVTDQVGTYWYHSHTGGQYGDGMRGVFIIEDDDFPYHYDEEVVLTLSDHYHKYSGDIGPAFLTRFNPTGAEPIPQNFLFNETRNATWKVEPGKTYFVRILNVGGFVSQYLWMEDHEFTIVEIDGVYVEKNTTDLIYITVAQRYGVLITTKNSTDKNYVFMNGVDTTMLDSVPADLQVNGTNYIVYNESSALPDAYDIDSYDDALDDFYLKPLSKQKLMDDADYTITVDVQMNVLNDGINYAFFNNISYKAPKVPTLLTVLSAGEAATNELIYGTNTNSFVLQGGDIVDIVLNNFDTGKHPFHLHGHVFQLIERHEAIGSKESAVTFNVSDHAEWPEYPMIRDTVYVKPHSYMVLRFKADNPVVWFFHCHVDWHLEQGLAVVLIEDPQAIQKNEKITENHKRICEKVGVPWEGNAAANSNDYLDLKGENVQVKRLPTGFTTKGIVALVFSCVAAFLGLFSFSFYGMNDIAHVEDKVARDLDIDLEAENEDEEEAVVLNQNSSSSDSNSKPH | 1.06 ± 0.02 s⁻¹ | 7.9 ± 0.5 µM |  |  |  |  | 
recombinant Bacillus sp. PL-12 Mn oxidase complex (Mnx; MnxE3F3G), MnxG (SEQ ID NO: 7), MnxE (SEQ ID NO: 5) and MnxF (SEQ ID NO: 6) (Bacillus sp. PL-12) (protein, Cu-loaded; purified ~230 kDa complex of MnxG, MnxE and MnxF; MnxD not found by MS) MLRKFHVVGISTRIVVNTFGDHNPNGRIYVLKENESKLKDLVRKNPYKPIDLVQPLAIRANEGDIVEILFENQLSFSAGMHFQEADYSVLSSDGADAGYNPDTTVEPGGEILYRLNVNQEGICFFTDLGNVSSTEQGSSVQGLFGALLVQKRGSSWTDPVTGGPINSGVYADIHHPFLPSFREYAWFFNDEMEIRDLTGERPLNPMTNQEAESFHGVNLRYEPMTNRKRLMEAGVVCPDCDSEEVHHDSWVFGDPATPILRGYVGDPAVIRLIHGGVKETHVFHYHVHQWLGDSSNINAEILDAQSISPQTHYSIQPLYGLGSLHGAIGDSIIHCHLYPHFGIGMWGMNRVFDTLQDGSQCYPNGVRIKALMPLPDRPEPPKPTPEKPGFPNFIPGKVGYKAPRPPLGIVGGREMTELERNAAIENPRPGAVFVDPCLDQDPVVVEFNVSAIEMPVVYNKQGWHDPKARFYVMDEDLDDILSGKKEPEPLVFHVPAGTCIRMNYTNRMPHILDGDAFQLVTRTYENGFHIHFVKFDVLACDGGNVGWNYDSAVLPGQTIRYEWYAETELKAFFFHDHLFANSHQQHGVFGAGVIQPRFSKFLDSRTGDEVDHGTQISVEHPLIPDYRDQTLFVHDFALLFDKNGRPIQPPEYPGSEDDPGVFGVNFKCEPLKFRLGEDCDPAYSFSSYVHGDPVTPILRAYEGDPIRIRLLQGAHEESHSFNIHGLRWKEERPDLGSSMKAQQHIGISESFTFETEIPASGDYLWAFEDEEDVWLGTWGLIRAYKGRMEDLIVLTDREALPEGSAETPKPTGKPPEKANPLASLPPGAYQGSPVKKFEVVAFQTPIQYNSYGDHDPYGIIFALKEDVEDILTGKKNPVPLILRANVGDLVEVTLTSELKKELFPFQDGIHPYPPVKEQSFYPPSLRISLHTSLLNYDVKTSSGDTVGYNPDQTVGPGETITYRWFVDGQFGMCSMWDMADLRNHRSFGTFGAFVAESRFTTYLDPYSLEKAITGENVILRHPLLPATREFVLILHDGVRLEDKDGKVIIDPMDGVVPDTEELEEVDTYDYGSRGFNYRSERLINRYKEHPVMHELFSSEVFGDPATPLFEAYPGEPVVMRITTPAERRRAHTFHLHGHYWKFDSKDLDSRIQSFLGHMVTGHTDDLRLIGGAGGVFNFPGDYLYRSGNIRWDIELGMWGIFRVHKDSKENLPRLEEVEGGWDNEEKA |  |  | 456 ± 23.3 µM | 0.206 ± 0.0136 s⁻¹ | 3126 ± 391 µM | 0.0595 ± 0.00891 s⁻¹ | 576 ± 163 µM
Fet3p S. cerevisiae: ferroxidase Fet3p from Saccharomyces cerevisiae, described in Stoj et al 2006 (protein, UniProt P38993 22-636, looked up) Iron transport multicopper …: ETHTFNWTTGWDYRNVDGLKSRPVITCNGQFPWPDITVNKGDRVQIYLTNGMNNTNTSMHFHGLFQNGTASMDGVPFLTQCPIAPGSTMLYNFTVDYNVGTYWYHSHTDGQYEDGMKGLFIIKDDSFPYDYDEELSLSLSEWYHDLVTDLTKSFMSVYNPTGAEPIPQNLIVNNTMNLTWEVQPDTTYLLRIVNVGGFVSQYFWIEDHEMTVVEIDGITTEKNVTDMLYITVAQRYTVLVHTKNDTDKNFAIMQKFDDTMLDVIPSDLQLNATSYMVYNKTAALPTQNYVDSIDNFLDDFYLQPYEKEAIYGEPDHVITVDVVMDNLKNGVNYAFFNNITYTAPKVPTLMTVLSSGDQANNSEIYGSNTHTFILEKDEIVEIVLNNQDTGTHPFHLHGHAFQTIQRDRTYDDALGEVPHSFDPDNHPAFPEYPMRRDTLYVRPQSNFVIRFKADNPGVWFFHCHIEWHLLQGLGLVLVEDPFGIQDAHSQQLSENHLEVCQSCSVATEGNAAANTLDLTDLTGENVQHAFIPTGFTKKGIIAMTFSCFAGILGIITIAIYGMMDMEDATEKVIRDLHVDPEVLLNEVDENEERQVNEDRHSTEKHQFLTKAKRFF | 0.835 ± 0.023 s⁻¹ | 4.9 ± 0.8 µM |  |  |  |  | 
